Key:
[1] = system: MCP-1 and FKN receptors CCR2 and CX3CR1; assay: IV sPDNF into naïve mice, chemokine receptor transcripts by qPCR; type: in vivo
Method: For the results depicted in FIGS. 12A and 12B, mice (3/group) were injected with various single doses of IV sPDNF, and sacrificed 3 hr post-injection. FIG. 12A is a graph showing the mRNA expression of MCP-1 receptor CCR2, as quantified by qPCR in the heart and liver. FIG. 12B is a graph showing the mRNA expression of FKN receptor CX3CR1, as quantified by qPCR in the heart and liver. […] For the results depicted in FIGS. 12C and 12D, mice (3/group) were injected with vehicle (Veh) or multiple doses of IV sPDNF (25 μg per injection) at 0, 3 and 24 hr, and sacrificed 24 hr after the last injection. FIG. 12C is a graph showing mRNA expression of CCR2, as quantified by qPCR in the liver, colon and heart (ventricles and atria). FIG. 12D is a graph showing mRNA expression of CX3CR1, as quantified by qPCR in the liver, colon and heart (ventricles and atria). Notice a statistically significant upregulation of MCP-1 and FKN receptors in the heart and liver 48-h after the start of three doses of IV sPDNF spaced within a 24 h span; *P<0.05, and ** P<0.01
One of the functions of MCP-1 and FKN is to attract cells expressing their receptors (CCR2 and CX3CR1, respectively) to tissue sites. […] Thus, sPDNF-induced MCP-1 and FKN promoted migration of cells bearing CCR2 and CX3CR1 receptors.
(§1) RNA was isolated from Trizol lysates of cell monolayers or liquid nitrogen snap frozen tissue samples dissociated by a Tissue-Tearor mechanical homogenizer (Biospec Products, Inc.). cDNA was synthesized using the Quantitect Reverse Transcription kit (Qiagen) according to manufacturer's instructions. Chemokine and chemokine receptor transcripts were amplified using specific primers and normalized to HPRT using SYBR Green (Qiagen), and, if needed, expressed relative to control-unstimulated cells. The following primers were used: […]
(§2) sPDNF was diluted in sterile endotoxin-free PBS (200 μl) and injected via the tail vein into 6-8 week old female C57BL/6 mice. Mice receiving single IV injections of 150 μg sPDNF per mouse were sacrificed at 3, 6, 9, and 12 hr post-injection, or various doses of sPDNF (100 ng-150 μg) and sacrificed 3 hr post-injection. Mice receiving multiple injections of sPDNF or PBS vehicle control (0, 3, and 24 hr, 100 μg per injection) were sacrificed 24 hr after the last injection (i.e., 48 hr after the first injection). Mice were perfused with PBS and organs harvested as described above.

MCP-1 and FKN = assay: Single dose IV sPDNF into naive wild type C57BL/6 mice, MCP-1 and FKN by real time PCR; type: in vivo
Method: Wild type C57BL/6 mice were used in the results depicted in FIGS. 11A-11D. FIG. 11A is a graph depicting that a single dose of intravenous (IV) sPDNF increased MCP-1 and FKN transcripts in the heart in a pulse-like response. Groups of mice (2 per group) were injected with vehicle (Veh) or sPDNF (150 μg/mouse) and sacrificed at 3, 6, 9 and 12 hr post-injection, and cardiac MCP-1 and FKN transcripts were quantified by qPCR. Points represent fold change of the mean±SD relative to Veh injected mice; *P<0.05 and **P<0.01. Experiment repeated three times with similar results; liver also responded with similar pulselike kinetics. FIG. 11B is a graph depicting that organ distribution of MCP-1 increased following a single IV dose of sPDNF. Experimental design analogous to that summarized above. FIG. 11C is a graph showing that a single IV dose of sPDNF augments MCP-1 and FKN transcripts dose-dependently in the heart. FIG. 11D is a graph showing that a single IV dose of sPDNF augments MCP-1 and FKN transcripts dose-dependently in the liver. For the results depicted in FIGS. 11C and 11D, groups of three mice were injected with various doses of sPDNF, and heart and liver harvested 3 hr post-injection to quantify MCP-1 and FKN by qPCR. The results are plotted as a composite of three distinct experiments. […] For the results depicted in FIGS. 11E-11H, TLR-deficient MyD88^−/− mice (two per group) were injected IV with vehicle (PBS) or sPDNF (100 μg per mouse), sacrificed 3 hr post-injection. FIG. 11E is a graph showing MCP-1 expression in the heart of MyD88^−/− mice injected with sPDNF. FIG. 11F is a graph showing FKN expression in the heart of MyD88^−/− mice injected with sPDNF. FIG. 11G is a graph showing MCP-1 expression in the liver of MyD88^−/− mice injected with sPDNF. FIG. 11H is a graph showing FKN expression in the liver of MyD88^−/− mice injected with sPDNF.
Groups of naive wild type C57BL/6 mice were injected with vehicle (PBS) or a single dose of IV sPDNF. Mice were sacrificed at various timepoints post-injection, and heart MCP-1 and FKN expression measured by real time PCR. […] The agonist effect of IV sPDNF was screened in various organs using optimum time response (3 hr post-injection) using the same dose as in FIG. 11A. […] Organ distribution of MCP-1 expression in response to IV sPDNF was similar to that of FKN. Without being bound to a particular theory, the selective increase of MCP-1 and FKN in various organs may reflect the uneven expression of PDNF receptors TrkA and TrkC in neural and non-neural tissues (22, 50).
as §1, §2

Limulus amebocyte assay = settings: sPDNF preparations
Method: To ensure that the response observed in wild type mice was not due to TLR activation, MCP-1 and FKN response to IV sPDNF was assessed in TLR-deficient MyD88^−/− mice (23).
PDNF was cloned from the T cruzi Silvio X-10/4 strain (GenBank accession number AJ002174). PDNF and a N-terminal short-form of PDNF (sPDNF) that contains Trk-binding sites, were expressed in BL21 (DE3) bacteria, and purified by Ni-affinity chromatography, as described previously (4, 12, 18, 60). Buffers were prepared in sterile endotoxin-free water, and sPDNF preparations screened with the Limulus amebocyte assay have undetectable levels of endotoxin. sPDNF migrates as a 68 kDa protein on a SDS-PAGE gel. PDNF protein was buffer exchanged into PBS (0.01 M phosphate buffered saline, pH 7.2), filter-sterilized (0.22 μm), and kept at 4° C. PDNF was quantified by scanning densitometry (Bio-Rad, GS-800) of SDS-PAGE gels stained with Coomassie brilliant blue.

[2] = IV at 0, 3 and 24 hr, measured 24 hr after the last injection
[3] = single IV dose 150 μg/mouse, pulse-like kinetics
[4] = various single IV doses, 3 hr post-injection

B1: sPDNF: N-terminal short-form of T cruzi PDNF that contains Trk-binding sites, recombinant; amino acids 1-588 of SEQ ID NO: 2; JR-100 is the commercial name (protein, listed as Trypanosoma cruzi)
chain: MGKTVVVASRMFWLMFFVPLLLAICPSEPAYALAPGSSRVELFKRKNSTVPFEDKAGKVTERVVHSFRLPALVNVDGVMVAIADARYDTSNDNSLIDTVAKYSVDDGETWETQIAIKNSRVSSVSRVVDPTVIVKGNKLYVLVGSYYSSRSYWSSHGDARDWDILLAVGEVTKSTAGGKITASIKWGSPVSLKKFFPAEMEGMHTNQFLGGAGVAIVASNGNLVYPVQVTNKKKQVFSKIFYSEDDGKTWKFGKGRSDFGCSEPVALEWEGKLIINTRVDWKRRLVYESSDMEKPWVEAVGTVSRVWGPSPKSNQPGSQSSFTAVTIEGMRVMLFTHPLNFKGRWLRDRLNLWLTDNQRIYNVGQVSIGDENSAYSSVLYKDDKLYCLHEINTDEVYSLVFARLVGELRIIKSVLRSWKNWDSHLSSICTPADPAASSSESGCGPAVTTVGLVGFLSGNASQNVWEDAYRCVNASTANAERVRNGLKFAGVGGGALWPVSQQGQNQRYRFANHAFTLVASVTIHEAPRAASPLLGASLDSSGGKKLLGLSYDEKHQWQPIYGSTPVTPTGSWETGKRYHLVLTMANKI
CCR2 in the liver and heart (ventricle and atrium) [1, 2]: significant increase | CX3CR1 in the liver and heart (ventricle and atrium) [1, 2]: significant increase | CCR2 transcripts in cardiac and hepatic tissues ([1]; single IV dose (150 μg)): did not increase | CX3CR1 transcripts in cardiac and hepatic tissues ([1]; single IV dose (150 μg)): did not increase | cardiac FKN transcripts (MCP-1 and FKN; [3]): significantly increased | cardiac MCP-1 transcripts (MCP-1 and FKN; [3]): significantly increased | expression of MCP-1 in the heart, liver and spleen (MCP-1 and FKN; single IV dose, 3 hr post-injection, liver most robust): increased expression | time of peak of cardiac FKN (MCP-1 and FKN; single IV dose, post-injection): 3 h | time of peak of cardiac MCP-1 (MCP-1 and FKN; single IV dose, post-injection): 3 h | increased expression of FKN in the heart (MCP-1 and FKN; [4]): dose-dependent | increased expression of MCP-1 in the heart (MCP-1 and FKN; [4]): dose-dependent | increased expression of MCP-1 in the liver (MCP-1 and FKN; [4]): dose-dependent | levels of endotoxin (Limulus amebocyte assay): did not have detectable levels

— patent US9744220B2, “Compositions and methods for treating inflammatory diseases” (priority 2013, dated 2017)
